B1: Untagged murine saposin A (SapA) [mouse] / His6-tagged murine β-galactocerebrosidase (GALC) [modified: glycosylated; glycosylated] [mouse] (parent complex)
chain 1: MGKSLPCDICKTVVTEAGNLLKDNATQEEILHYLEKTCEWIHDSSLSASCKEVVDSYLPVILDMIKGEMSNPGEVCSALNLCQSLQE
chain 2: YVLDDSDGLGREFDGIGAVSGGGATSRLLVNYPEPYRSEILDYLFKPNFGASLHILKVEIGGDGQTTDGTEPSHMHYELDENYFRGYEWWLMKEAKKRNPDIILMGLPWSFPGWLGKGFSWPYVNLQLTAYYVVRWILGAKHYHDLDIDYIGIWNERPFDANYIKELRKMLDYQGLQRVRIIASDNLWEPISSSLLLDQELWKVVDVIGAHYPGTYTVWNAKMSGKKLWSSEDFSTINSNVGAGCWSRILNQNYINGNMTSTIAWNLVASYYEELPYGRSGLMTAQEPWSGHYVVASPIWVSAHTTQFTQPGWYYLKTVGHLEKGGSYVALTDGLGNLTIIIETMSHQHSMCIRPYLPYYNVSHQLATFTLKGSLREIQELQVWYTKLGTPQQRLHFKQLDTLWLLDGSGSFTLELEEDEIFTLTTLTTGRKGSYPPPPSSKPFPTNYKDDFNVEYPLFSEAPNFADQTGVFEYYMNNEDREHRFTLRQVLNQRPITWAADASSTISVIGDHHWTNMTVQCDVYIETPRSGGVFIAGRVNKGGILIRSATGVFFWIFANGSYRVTADLGGWITYASGHADVTAKRWYTLTLGIKGYFAFGMLNGTILWKNVRVKYPGHGWAAIGTHTFEFAQFDNFRVEAAR

Variants of: B1
Assay: pull-down (immobilised GALC, Coomassie SDS-PAGE, quantified); in the presence of Tween-20; n = 3; read off a plot

ratio to parent	Variant
~0.06	chain 1 E52K
~0.77	chain 1 K66E
~1.1	chain 1 E68K
~0.06	chain 1 E28K
~0.12	chain 1 D55K
~0.05	chain 1 K22E
~0.04	chain 1 L31R
~0.13	chain 1 L31N
~0.08	chain 1 Q27K
~0.03	chain 1 D63K
~0.77	chain 1 W40S
~0.81	chain 1 W40F
~0.8	chain 1 W40D
~0.21	chain 1 E35R

Source: publication PMC5764952 (2018)
